This is an account of results in publication PMC3256758.

The stoichiometry N is a count of units in the complex or per binding partner.

The target of test [1] is Pisum sativum (green pea) porphobilinogen synthase (PsPBGS) (Pisum sativum (green pea)). The experiment in a line: native gel or EMSA. In general terms: A gel shift assay detects complexes by their altered migration in electrophoresis.
Test [2] has as its target human porphobilinogen synthase, wild type (WT HsPBGS) (human) (UniProt P13716).
Test [3] shares this target. This is another data set of the same source.
Test [4] shares this target. The source holds these as a separate data set.

Several values for one entry are separate records, joined by “and”; a condition that tells them apart may be missing. Equal values may be shown once. Read-outs that look alike come from different tables or passages of the source.

In the case of “Pisum sativum (green pea) porphobilinogen synthase (PsPBGS) (enzyme)”, the stoichiometry N in test [1] was 8 and 6.

“human porphobilinogen synthase, naturally occurring variant F12L (from UniProt P13716 1-330) (enzyme)”: the stoichiometry N is 6 and 8 in test [2]; 6 and 8 in test [3]. Also, the percent Phe12 (WT) chains in the hetero-octamers (Pool II) in test [4] amounted to 70%.
